Test results from patent publication US20070248602A1.

Key:
[1] = target: FcγRIIIa on human PBMCs expressing heterozygous V158/F158 FcγRIIIa (human) (UniProt P08637); assay: cell-based or functional assay
[2] = target: human FcγRIIIa (FIG. 41 data; allotype not given) (human) (UniProt P08637); assay: AlphaScreen competition
human FcγRIIIa (FIG. 41 data; allotype not given) (human), sequence (P08637 17-208): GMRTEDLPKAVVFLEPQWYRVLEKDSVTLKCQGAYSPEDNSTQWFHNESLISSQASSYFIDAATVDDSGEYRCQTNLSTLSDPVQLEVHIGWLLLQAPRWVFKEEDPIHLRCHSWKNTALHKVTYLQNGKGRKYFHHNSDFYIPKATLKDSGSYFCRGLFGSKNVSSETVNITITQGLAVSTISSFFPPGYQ

FcγRIIIa on human PBMCs expressing heterozygous V158/F158 FcγRIIIa (human), sequence (P08637 17-254): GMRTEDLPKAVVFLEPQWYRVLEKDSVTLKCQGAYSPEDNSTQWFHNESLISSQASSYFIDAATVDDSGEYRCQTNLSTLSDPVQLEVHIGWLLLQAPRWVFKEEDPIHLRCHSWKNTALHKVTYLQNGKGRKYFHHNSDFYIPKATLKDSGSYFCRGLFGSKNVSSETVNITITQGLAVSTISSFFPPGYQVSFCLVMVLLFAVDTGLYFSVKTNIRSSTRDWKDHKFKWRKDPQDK

| Substance | ADCC EC50, DoHH-2 target cells [1] [ng/mL] | ADCC Fold WT, DoHH-2 target cells [1] [fold] | ADCC log(EC50), DoHH-2 target cells [1] | FcγRIIIa-fold [2] [fold] | FcγRIIIa-fold:FcγRIIb-fold [2] |
| --- | --- | --- | --- | --- | --- |
| S239D/I332E alemtuzumab (antibody) | 3 | 3.3 | 0.49 | – | – |
| V264I/I332E alemtuzumab (antibody) | 4 | – | 0.6 | – | – |
| S239D/I332E Fc variant (FIG. 41 data, antibody context not told in the text) | – | – | – | 192 | – |
| S239D/A330L/I332E Fc variant (FIG. 41 data, antibody context not told in the text) | – | – | – | 139 | 18 |
